Measurements published in FireProtDB (doi:10.1110/ps.073137708).
Several values for one entry are separate records, joined by “and”; a condition that tells them apart may be missing. Equal entries are not always repeated.

B1: H69A, Q7SID9 (parent)
chain: STGPVAPLPTPPNFPNDIALFQQAYQNWSKEIMLDATWVCSPKTPQDVVRLANWAHEHDYKIRPRGAMHGWTPLTVEKGANVEKVILADTMTHLNGITVNTGGPVATVTAGAGASIEAIVTELQKHDLGWANLPAPGVLSIGGALAVNAHGAALPAVGQTTLPGHTYGSLSNLVTELTAVVWNGTTYALETYQRNDPRITPLLTNLGRCFLTSVTMQAGPNFRQRCQSYTDIPWRELFAPKGADGRTFEKFVAESGGAEAIWYPFTEKPWMKVWTVSPTKPDSSNEVGSLGSAGSLVGKPPQAREVSGPYNYIFSDNLPEPITDMIGAINAGNPGIAPLFGPAMYEITKLGLAATNANDIWGWSKDVQFYIKATTLRLTEGGGAVVTSRANIATVINDFTEWFHERIEFYRAKGEFPLNGPVEIRCCGLDQAADVKVPSVGPPTISATRPRPDHPDWDVAIWLNVLGVPGTPGMFEFYREMEQWMRSHYNNDDATFRPEWSKGWAFGPDPYTDNDIVTNKMRATYIEGVPTTENWDTARARYNQIDPHRVFTNGFMDKLLP

Variants of: B1
Conditions: Brevibacterium sterolicum; pH 7.5; 15 °C; Urea; Fluorescence; Potassium phosphate 50 mM; reversible: Yes (partial); structure 2I0K; whole UniProt chain shown
For STGPVAPLPTPPNFPNDIALFQQAYQNWSKEIMLDATWVCSPKTPQDVVRLANWAHEHDYKIRPRGAMAGWTPLTVEKGANVEKVILADTMTHLNGITVNTGGPVATVTAGAGASIEAIVTELQKHDLGWANLPAPGVLSIGGALAVNAHGAALPAVGQTTLPGHTYGSLSNLVTELTAVVWNGTTYALETYQRNDPRITPLLTNLGRCFLTSVTMQAGPNFRQRCQSYTDIPWRELFAPKGADGRTFEKFVAESGGAEAIWYPFTEKPWMKVWTVSPTKPDSSNEVGSLGSAGSLVGKPPQAREVSGPYNYIFSDNLPEPITDMIGAINAGNPGIAPLFGPAMYEITKLGLAATNANDIWGWSKDVQFYIKATTLRLTEGGGAVVTSRANIATVINDFTEWFHERIEFYRAKGEFPLNGPVEIRCCGLDQAADVKVPSVGPPTISATRPRPDHPDWDVAIWLNVLGVPGTPGMFEFYREMEQWMRSHYNNDDATFRPEWSKGWAFGPDPYTDNDIVTNKMRATYIEGVPTTENWDTARARYNQIDPHRVFTNGFMDKLLP [H69A], the “denaturant midpoint (higher = more stable)” value was 2.9 M and 3.5 M and 2.7 M and the unfolding free energy was 1.53 kcal/mol and 1.36 kcal/mol and 1.2 kcal/mol.
